The supplement of paper PMC7877785
± gives the uncertainty stated by the source.

Experiment: self-splicing fitness, log relative to wild type (ln ratio); higher = more splicing; Tetrahymena group I intron in knt gene, E. coli kanamycin selection, DiMSum; sequences stand for … in CUCUCU…GGAGGGAAAAGUUAUCAGGCAUGCACCUGGUAGCUAGUCUUUAAACCAAUAGAUUGCAUCGGUUUAAAAGGCAAGACCGUCAAAUUGCGGGAAAGGGGUCAACAGCCGUUCAGUACCAAGUCUCAGGGGAAACUUUGAGAUGGCCUUGCAAAGGGUAUGGUAAUAAGCUGACGGACAUGGUCCUAACCACGCAGCCAAGUCCUAAGUCAACAGAUCUUCUGUUGAUAUGGAUGCAGUUCACAGACUAAAUGUCGGUCGGGGAAGAUGUAUUCUUCUCAUAAGAUAUAGUCGGACCUCUCCUUAAUGGGAGCUAGCGGAUGAAGUGAUGCAACACUGGAGCCGCUGGGAACUAAUUUGUAUGCGAAAGUAUAUUGAUUAGUUUUGGAGUACUCGUGGUCG
Summary of the method: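 A randomised library covering all eight P1ex-region intron nucleotides was built with the intron in the knt kanamycin-resistance gene on pET-22b(+) and held in E. coli BL21(DE3). Cells were grown overnight at 37°C or 30°C on LB agar, with or without 25 μg/mL kanamycin, plus 100 μg/mL carbenicillin, 50 μM IPTG and 0.2% rhamnose, and pooled colonies were amplicon-sequenced on an Illumina HiSeq 2500. DiMSum fitness is the error-weighted combination of wild-type-normalised replicate fold changes, kanamycin versus none.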

Sequence	self-splicing fitness (ln) (30 °C)	self-splicing fitness (ln) (37 °C)
CCCAAGCAAUAUUACGUCGC	-3.94 ± 0.28	-2.38 ± 0.16
CCCAAGCAAUAUUACGUGAA	-3.33 ± 0.14	-2.13 ± 0.14
CCCAAGCAAUAUUACGUGAC	-3.91 ± 0.25	-2.03 ± 0.19
CCCAAGCAAUAUUACGUGUC	-4.25 ± 0.26	-2.72 ± 0.18
CCCAAGCAAUAUUACGUUCA	-3.21 ± 0.23	-2.39 ± 0.29
CCCAAGCAAUAUUACGUUGA	-3.74 ± 0.14	-3.04 ± 0.14
CCCAAGCAAUAUUACGUUUC	-3.63 ± 0.16	-2.76 ± 0.15
CCCCAGCAAUAUUACGAAAU	-3.82 ± 0.17	-2.25 ± 0.18
CCCCAGCAAUAUUACGAACG	-3.44 ± 0.2	-2.19 ± 0.18
CCCCAGCAAUAUUACGAUGG	-3.49 ± 0.15	-2.82 ± 0.21
CCCCAGCAAUAUUACGCACA	-3.56 ± 0.21	-3.66 ± 0.29
CCCCAGCAAUAUUACGCAUA	-2.67 ± 0.14	-2.4 ± 0.2
CCCCAGCAAUAUUACGCCAG	-3.57 ± 0.2	-2.44 ± 0.22
CCCCAGCAAUAUUACGCGGA	-3.34 ± 0.15	-2.07 ± 0.12
CCCCAGCAAUAUUACGCGUA	-3.87 ± 0.25	-2.46 ± 0.18
CCCCAGCAAUAUUACGCUCG	-3.14 ± 0.17	-2.1 ± 0.19
CCCCAGCAAUAUUACGGAAG	-2.27 ± 0.088	-1.73 ± 0.11
CCCCAGCAAUAUUACGGACA	-3.52 ± 0.14	-2.53 ± 0.14
CCCCAGCAAUAUUACGGAUC	-2.89 ± 0.12	-2.96 ± 0.21
CCCCAGCAAUAUUACGGCAG	-3.92 ± 0.16	-2.22 ± 0.15
CCCCAGCAAUAUUACGGCGA	-2.05 ± 0.14	-1.64 ± 0.14
CCCCAGCAAUAUUACGGCGG	-3.53 ± 0.17	-2.99 ± 0.24
CCCCAGCAAUAUUACGUACA	-3.37 ± 0.21	-3.5 ± 0.35
CCCCAGCAAUAUUACGUCAU	-3.36 ± 0.1	-3.02 ± 0.15
CCCCAGCAAUAUUACGUCCG	–	-2.09 ± 0.28

Sequence	self-splicing fitness (ln) (30 °C)	self-splicing fitness (ln) (37 °C)
CCCCAGCAAUAUUACGUGCC	-4.13 ± 0.27	-2.57 ± 0.24
CCCGAGCAAUAUUACGAACU	–	-1.58 ± 0.39
CCCGAGCAAUAUUACGAAGC	-3.12 ± 0.26	–
CCCGAGCAAUAUUACGAAUA	-3.44 ± 0.2	-2.89 ± 0.21
CCCGAGCAAUAUUACGACUA	-2.29 ± 0.36	–
CCCGAGCAAUAUUACGAGCC	-2.46 ± 0.2	-2.12 ± 0.28
CCCGAGCAAUAUUACGCAAC	–	-2.23 ± 0.34
CCCGAGCAAUAUUACGCAUC	-2 ± 0.15	-1.45 ± 0.2
CCCGAGCAAUAUUACGCUUA	-3.88 ± 0.3	-2.82 ± 0.33
CCCGAGCAAUAUUACGCUUC	-3.7 ± 0.47	-2.32 ± 0.29
CCCGAGCAAUAUUACGGAGG	-3.84 ± 0.21	-2.57 ± 0.19
CCCGAGCAAUAUUACGGCAC	–	-2.32 ± 0.28
CCCGAGCAAUAUUACGGUCG	-3.56 ± 0.24	-2.58 ± 0.2
CCCGAGCAAUAUUACGGUUC	-3.62 ± 0.2	-1.98 ± 0.2
CCCGAGCAAUAUUACGUAUC	-1.94 ± 0.17	-3.67 ± 0.36
CCCGAGCAAUAUUACGUCUC	–	-2.22 ± 0.29
CCCGAGCAAUAUUACGUGAG	-3.58 ± 0.19	-2.77 ± 0.24
CCCGAGCAAUAUUACGUGUC	-5.12 ± 0.38	-2.8 ± 0.19
CCCGAGCAAUAUUACGUUGG	-4.15 ± 0.18	-2.09 ± 0.14
CCCGAGCAAUAUUACGUUUA	-3.42 ± 0.17	-2.75 ± 0.16
CCCUAGCAAUAUUACGAACC	–	-2.28 ± 0.39
CCCUAGCAAUAUUACGAAUA	-1.47 ± 0.3	-1.79 ± 0.39
CCCUAGCAAUAUUACGACCU	-3.5 ± 0.21	-2.68 ± 0.26
CCCUAGCAAUAUUACGAUCU	-3.92 ± 0.28	-2.74 ± 0.24
CCCUAGCAAUAUUACGAUGC	-3.12 ± 0.2	-2.22 ± 0.31
